Experimental data from PMC5884693 (Cell, 2018).

Biological target: the molecule itself
Experiment: negative stain EM

B1: Drosophila Arc homologue dArc1 (natural protein, UniProt Q7K1U0 1-254, looked up)
chain: MAQLTQMTNEQLRELIEAVRAAAVGAAGSAAAAGGADASRGKGNFSACTHSFGGTRDHDVVEEFIGNIETYKDVEGISDENALKGISLLFYGMASTWWQGVRKEATTWKEAIALIREHFSPTKPAYQIYMEFFQNKQDDHDPIDTFVIQKRALLAQLPSGRHDEETELDLLFGLLNIKYRKHISRHSVHTFKDLLEQGRIIEHNNQEDEEQLATAKNTRGSKRTTRCTYCSFRGHTFDNCRKRQKDRQEEQHEE
Question: Does B1 bind?
Answer: Result: binds
